Source: patent US20240218065A1 (SHENGHE CHINA BIOPHARMACEUTICAL, published 2024)
Like-named read-outs stand apart in the source and are kept apart here.

T1: Human-NKP30-His (Kactus, cat: NKP-HM430) (human, UniProt O14931 19-138, limits assumed)
T1 construct: also called NKP30 protein; NKP30-his protein; not shown: His tag
T1 sequence (looked up): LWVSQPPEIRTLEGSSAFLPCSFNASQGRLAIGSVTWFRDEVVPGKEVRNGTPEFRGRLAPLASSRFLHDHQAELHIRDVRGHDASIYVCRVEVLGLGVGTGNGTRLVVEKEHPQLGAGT


Key:
Human-GPC3-His [1] = target: T2, Human-GPC3-His (human, UniProt P51654 25-559, limits assumed); test: ELISA: Human-GPC3-His coated at 0.5 µg/mL, antibody titrated 3-fold from 10 µg/mL, HRP goat anti-human IgG-Fc, OD450-OD570
T2 construct: Coated on the ELISA plate; also called GPC-3 protein; GPC3 protein; not shown: His tag
T2 sequence (P51654 25-559 limits assumed): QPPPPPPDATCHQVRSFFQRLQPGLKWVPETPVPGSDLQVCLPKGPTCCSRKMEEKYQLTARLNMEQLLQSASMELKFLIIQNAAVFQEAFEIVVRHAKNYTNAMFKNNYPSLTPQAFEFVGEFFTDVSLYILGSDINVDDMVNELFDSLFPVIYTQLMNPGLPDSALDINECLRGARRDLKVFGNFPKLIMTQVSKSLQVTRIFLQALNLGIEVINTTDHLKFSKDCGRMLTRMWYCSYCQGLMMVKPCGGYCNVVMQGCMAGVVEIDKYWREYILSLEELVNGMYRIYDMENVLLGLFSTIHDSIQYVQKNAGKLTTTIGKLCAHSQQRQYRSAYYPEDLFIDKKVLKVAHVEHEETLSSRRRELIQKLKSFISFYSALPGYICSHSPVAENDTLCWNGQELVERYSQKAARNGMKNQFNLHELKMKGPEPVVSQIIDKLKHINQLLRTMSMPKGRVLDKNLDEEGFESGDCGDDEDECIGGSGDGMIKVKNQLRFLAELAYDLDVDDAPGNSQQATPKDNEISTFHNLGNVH
Experimental: (§1) Human-GPC3-His was diluted to 0.5 μg/mL with PBS buffer at pH 7.4, added into the 96-well ELISA plate at 100 μL per well, coated overnight at 4° C., and blocked with 1% BSA blocking solution for 1 hour. The plate was washed 3 times with PBST, and the constructed antibody was diluted to 10 μg/mL with 0.5% BSA sample diluent as the starting concentration, and then diluted by 3-fold gradient (11 gradients in total) and incubated at 37° C. for 1 h at 100 μL per well. The plate was washed 3 times with PBST, and then HRP-labelled goat anti-human IgG-Fc was diluted with the sample diluent at 1:20000. 100 μL was added into each well, and incubated at room temperature for 1 hour. A negative control (blank well and IgG1 isotype control) and a positive control were set, and the positive control was a GPC-3 and CD3 bispecial antibody from the literature Hs, A, et al. “Engineering a bispecific antibody with a common light chain: Identification and optimization of an anti-CD3 epsilon and anti-GPC3 bispecific antibody, ERY974.” Methods 154 (2019): 10-20. (The GPC-3 and CD3 bispecial antibody sequence consists of SEQ ID No. 22, SEQ ID No. 23, and SEQ ID No. 24). The plate was washed 4 times with PBST, and 100 μL of TMB substrate was added into each well, and incubated at room temperature without light for 10 minutes. 100 μL of 1 M HCl solution was added into each well to terminate the color development reaction. The absorbance value of each well in the 96-well plate was determined by selecting the wavelength of 450 nm and the reference wavelength of 570 nm on a multifunctional enzyme marker, and the absorbance value (OD)=OD₄₅₀ₙₘ−OD₅₇₀ₙₘ. The logarithm of the concentration of the constructed antibody was taken as the abscissa, and the measured absorbance value of each well was taken as the ordinate, and the Sigmoidaldose-response (Variable Slope) method (GraphPad Prism software, GraphPad Software, San Diego, California) was selected for nonlinear regression to obtain the binding curve of the target antibody to the GPC-3 protein.

[2] = target: T1, Human-NKP30-His (Kactus, cat: NKP-HM430); test: ELISA: Human-NKP30-His coated, antibody titrated 3-fold from 10 µg/mL, HRP goat anti-human IgG-Fc, OD450-OD570
Experimental: (§2) Human-NKP30-His (Kactus, cat: NKP-HM430) was diluted to […] with PBS buffer at pH 7.4, added into the 96-well ELISA plate at 100 μL per well, coated overnight at 4° C., and blocked with 1% BSA blocking solution for 1 hour. The plate was washed 3 times with PBST, and the constructed antibodies were diluted to 10 μg/mL with 0.5% BSA sample diluent as the starting concentration, and then diluted by 3-fold gradient (11 gradients in total). A negative control (blank well and IgG1 isotype control) and a positive control were set, and the positive control was a NKP30 humanized antibody (sequence shown in SEQ ID No. 28), and incubated at 37° C. for 1 h at 100 μL per well. The plate was washed 3 times with PBST, and then HRP-labelled goat anti-human IgG-Fc was diluted with the sample diluent at 1:20000. 100 μL was added into each well, and incubated at room temperature for 1 hour. The plate was washed 4 times with PBST, and 100 μL of TMB substrate was added into each well, and incubated at room temperature without light for 10 minutes. 100 μL of 1 M HCl solution was added into each well to terminate the color development reaction. The absorbance value of each well in the 96-well plate was determined by selecting the wavelength of 450 nm and the reference wavelength of 570 nm on a multifunctional enzyme marker, and the absorbance value (OD)=OD₄₅₀ₙₘ−OD₅₇₀ₙₘ. The logarithm of the concentration of the constructed antibody was taken as the abscissa, and the measured absorbance value of each well was taken as the ordinate, and the Sigmoidaldose-response (Variable Slope) method (GraphPad Prism software, GraphPad Software, San Diego, California) was selected for nonlinear regression to obtain the binding curve of the target antibody to NKP30.

[3] = target: T1, Human-NKP30-His (Kactus, cat: NKP-HM430); test: as above; remark: listed apart in the source
Experimental: as §2

Human-GPC3-His [4] = target: T2, Human-GPC3-His; test: ELISA: Human-GPC3-His coated at 0.5 µg/mL, antibody titrated 3-fold from 10 µg/mL, HRP goat anti-human IgG-Fc, OD450-OD570; remark: listed apart in the source
Experimental: as §1

Row | Binder | EC50 (read off the curve) (Human-GPC3-His [1]) [µg/mL] | EC50 (read off the curve) [2] [µg/mL] | EC50 (read off the curve) [3] [µg/mL] | EC50 (read off the curve) (Human-GPC3-His [4]) [µg/mL]
1 | GN15-B (bispecific antibody, human IgG1, kappa, Trifunctional antibody against GPC-3 and NKP30 with IL-15 and IL-15Rα sushi between CH1 and CH2; also called constructed antibody GN15-B; multifunctional antibody) light: DVVMTQSPLSLPVTPGEPASISCRSSQSLVHSNRNTYLHWYLQKPGQSPQLLIYKVSNRFSGVPDRFSGSGSGTDFTLKISRVEAEDVGVYYCSQNTHVPPTFGQGTKLEIKRTVAAPSVFIFPPSDEQLKSGTASVVCLLNNFYPREAKVQWKVDNALQSGNSQESVTEQDSKDSTYSLSSTLTLSKADYEKHKVYACEVTHQGLSSPVTKSFNRGEC heavy 1: not shown heavy 2: EVQLVESGGGLVQPGGSLRLSCAASGITFSRSVMGWFRQAPGKLRELVAGITSDDNTDYADSVKGRFTISRDNSKNTLYLQMNSLRAEDTAVYYCNILPDSRLGWGQGTLVTVSSGGGGSGGGGSGGGGSQVQLVQSGAEVKKPGASVKVSCKASGYTFTDYEMHWVRQAPGQGLEWMGALDPKTGDTAYSQKFKGRVTLTADKSTSTAYMELSSLTSEDTAVYYCTRFYSYTYWGQGTLVTVSSASTKGPSVFPLAPSSKSTSGGTAALGCLVKDYFPEPVTVSWNSGALTSGVHTFPAVLQSSGLYSLSSVVTVPSSSLGTQTYICNVNHKPSNTKVDKKVEPKSCDKTHTCPPCPGGGGSGGGGSPALLLLLLLRPPATRGITCPPPMSVEHADIWVKSYSLYSRERYICNSGFKRKAGTSSLTECVLNKATNVAHWTTPSLKCIRDPALVHQRPAPPSTVTTAGVTPQPESLSPSGKEGGGGSGGGGSAPELLGGPSVFLFPPKPKDTLMISRTPEVTCVVVDVSHEDPEVKFNWYVDGVEVHNAKTKPREEQYNSTYRVVSVLTVLHQDWLNGKEYKCKVSNKALPAPIEKTISKAKGQPREPQVYTLPPSRDELTKNQVSLTCLVKGFYPSDIAVEWESNGQPENNYKTTPPVLDSDGSFFLASKLTVDKSRWQQGNVFSCSVMHEALHNHYTQKSLSLSPGK |  | ~0.03 |  | ~0.03
2 | GN15-C (bispecific antibody, human IgG1, kappa, Trifunctional antibody against GPC-3 and NKP30 with IL-15 and IL-15Rα sushi between CH1 and CH2; also called constructed antibody GN15-C; multifunctional antibody) light: DVVMTQSPLSLPVTPGEPASISCRSSQSLVHSNRNTYLHWYLQKPGQSPQLLIYKVSNRFSGVPDRFSGSGSGTDFTLKISRVEAEDVGVYYCSQNTHVPPTFGQGTKLEIKRTVAAPSVFIFPPSDEQLKSGTASVVCLLNNFYPREAKVQWKVDNALQSGNSQESVTEQDSKDSTYSLSSTLTLSKADYEKHKVYACEVTHQGLSSPVTKSFNRGECGGGGSGGGGSGGGGSGGGGSEVQLVESGGGLVQPGGSLRLSCAASGITFSRSVMGWFRQAPGKLRELVAGITSDDNTDYADSVKGRFTISRDNSKNTLYLQMNSLRAEDTAVYYCNILPDSRLGWGQGTLVTVSS heavy 1: not shown heavy 2: QVQLVQSGAEVKKPGASVKVSCKASGYTFTDYEMHWVRQAPGQGLEWMGALDPKTGDTAYSQKFKGRVTLTADKSTSTAYMELSSLTSEDTAVYYCTRFYSYTYWGQGTLVTVSSASTKGPSVFPLAPSSKSTSGGTAALGCLVKDYFPEPVTVSWNSGALTSGVHTFPAVLQSSGLYSLSSVVTVPSSSLGTQTYICNVNHKPSNTKVDKKVEPKSCDKTHTCPPCPGGGGSGGGGSPALLLLLLLRPPATRGITCPPPMSVEHADIWVKSYSLYSRERYICNSGFKRKAGTSSLTECVLNKATNVAHWTTPSLKCIRDPALVHQRPAPPSTVTTAGVTPQPESLSPSGKEGGGGSGGGGSAPELLGGPSVFLFPPKPKDTLMISRTPEVTCVVVDVSHEDPEVKFNWYVDGVEVHNAKTKPREEQYNSTYRVVSVLTVLHQDWLNGKEYKCKVSNKALPAPIEKTISKAKGQPREPQVYTLPPSRDELTKNQVSLTCLVKGFYPSDIAVEWESNGQPENNYKTTPPVLDSDGSFFLASKLTVDKSRWQQGNVFSCSVMHEALHNHYTQKSLSLSPGK |  | ~0.05 |  | ~0.03

Now from value to binder:

Row | EC50 (read off the curve) (Human-GPC3-His [1]) [µg/mL] | EC50 (read off the curve) [2] [µg/mL] | EC50 (read off the curve) [3] [µg/mL] | EC50 (read off the curve) (Human-GPC3-His [4]) [µg/mL] | Binder
3 | ~0.04 | ~0.03 |  |  | GN15-D (bispecific antibody, human IgG1, kappa, Trifunctional antibody against GPC-3 and NKP30 with IL-15 and IL-15Rα sushi between CH1 and CH2; also called constructed antibody GN15-D; multifunctional antibody) light: DVVMTQSPLSLPVTPGEPASISCRSSQSLVHSNRNTYLHWYLQKPGQSPQLLIYKVSNRFSGVPDRFSGSGSGTDFTLKISRVEAEDVGVYYCSQNTHVPPTFGQGTKLEIKRTVAAPSVFIFPPSDEQLKSGTASVVCLLNNFYPREAKVQWKVDNALQSGNSQESVTEQDSKDSTYSLSSTLTLSKADYEKHKVYACEVTHQGLSSPVTKSFNRGEC heavy 1: not shown heavy 2: QVQLVQSGAEVKKPGASVKVSCKASGYTFTDYEMHWVRQAPGQGLEWMGALDPKTGDTAYSQKFKGRVTLTADKSTSTAYMELSSLTSEDTAVYYCTRFYSYTYWGQGTLVTVSSASTKGPSVFPLAPSSKSTSGGTAALGCLVKDYFPEPVTVSWNSGALTSGVHTFPAVLQSSGLYSLSSVVTVPSSSLGTQTYICNVNHKPSNTKVDKKVEPKSCDKTHTCPPCPGGGGSGGGGSPALLLLLLLRPPATRGITCPPPMSVEHADIWVKSYSLYSRERYICNSGFKRKAGTSSLTECVLNKATNVAHWTTPSLKCIRDPALVHQRPAPPSTVTTAGVTPQPESLSPSGKEGGGGSGGGGSAPELLGGPSVFLFPPKPKDTLMISRTPEVTCVVVDVSHEDPEVKFNWYVDGVEVHNAKTKPREEQYNSTYRVVSVLTVLHQDWLNGKEYKCKVSNKALPAPIEKTISKAKGQPREPQVYTLPPSRDELTKNQVSLTCLVKGFYPSDIAVEWESNGQPENNYKTTPPVLDSDGSFFLASKLTVDKSRWQQGNVFSCSVMHEALHNHYTQKSLSLSPGKGGGGSGGGGSGGGGSGGGGSEVQLVESGGGLVQPGGSLRLSCAASGITFSRSVMGWFRQAPGKLRELVAGITSDDNTDYADSVKGRFTISRDNSKNTLYLQMNSLRAEDTAVYYCNILPDSRLGWGQGTLVTVSS
4 | ~0.06 |  | ~0.04 |  | GN15-E (bispecific antibody, human IgG1, kappa, Trifunctional antibody against GPC-3 and NKP30 with IL-15 and IL-15Rα sushi between CH1 and CH2; also called constructed antibody GN15-E; multifunctional antibody) light 1: EVQLVESGGGLVQPGGSLRLSCAASGITFSRSVMGWFRQAPGKLRELVAGITSDDNTDYADSVKGRFTISRDNSKNTLYLQMNSLRAEDTAVYYCNILPDSRLGWGQGTLVTVSSGGGGSGGGGSGGGGSQVQLVQSGAEVKKPGASVKVSCKASGYTFTDYEMHWVRQAPGQGLEWMGALDPKTGDTAYSQKFKGRVTLTADKSTSTAYMELSSLTSEDTAVYYCTRFYSYTYWGQGTLVTVSSRTVAAPSVFIFPPSDEQLKSGTASVVCLLNNFYPREAKVQWKVDNALQSGNSQESVTEQDSKDSTYSLSSTLTLSKADYEKHKVYACEVTHQGLSSPVTKSFNRGEC heavy 1: not shown heavy 2: QVQLVQSGAEVKKPGASVKVSCKASGYTFTDYEMHWVRQAPGQGLEWMGALDPKTGDTAYSQKFKGRVTLTADKSTSTAYMELSSLTSEDTAVYYCTRFYSYTYWGQGTLVTVSSASTKGPSVFPLAPSSKSTSGGTAALGCLVKDYFPEPVTVSWNSGALTSGVHTFPAVLQSSGLYSLSSVVTVPSSSLGTQTYICNVNHKPSNTKVDKKVEPKSCDKTHTCPPCPGGGGSGGGGSPALLLLLLLRPPATRGITCPPPMSVEHADIWVKSYSLYSRERYICNSGFKRKAGTSSLTECVLNKATNVAHWTTPSLKCIRDPALVHQRPAPPSTVTTAGVTPQPESLSPSGKEGGGGSGGGGSAPELLGGPSVFLFPPKPKDTLMISRTPEVTCVVVDVSHEDPEVKFNWYVDGVEVHNAKTKPREEQYNSTYRVVSVLTVLHQDWLNGKEYKCKVSNKALPAPIEKTISKAKGQPREPQVYTLPPSRDELTKNQVSLTCLVKGFYPSDIAVEWESNGQPENNYKTTPPVLDSDGSFFLASKLTVDKSRWQQGNVFSCSVMHEALHNHYTQKSLSLSPGK light 2: DVVMTQSPLSLPVTPGEPASISCRSSQSLVHSNRNTYLHWYLQKPGQSPQLLIYKVSNRFSGVPDRFSGSGSGTDFTLKISRVEAEDVGVYYCSQNTHVPPTFGQGTKLEIKRTVAAPSVFIFPPSDEQLKSGTASVVCLLNNFYPREAKVQWKVDNALQSGNSQESVTEQDSKDSTYSLSSTLTLSKADYEKHKVYACEVTHQGLSSPVTKSFNRGEC
